Results from publication PMC12298754.

Key:
[1] = biological target: PD-L1 protein on 4T1 cells (programmed cell death ligand-1) (mouse (endogenous in 4T1)) (UniProt Q9EP73); assay: radioligand binding; competition on 4T1 cells adhered to 96-well plates, 37 °C, 1 h; [18F]AlF-NOTA-iPD-L1 constant at 1 ng/20 kBq; unlabeled peptides 10 to 0.00001 mM; washed with pH 7.4 buffer (0.1% BSA, 25 mM Tris-HCl, 1 mM CaCl2, 120 mM NaCl); corrected for non-specific binding with …; n = 3
[2] = biological target: PD-L1 protein on 4T1 cells (programmed cell death ligand-1) (mouse (endogenous in 4T1)) (UniProt Q9EP73)

Sequence of UniProt Q9EP73 (Q9EP73 19-290): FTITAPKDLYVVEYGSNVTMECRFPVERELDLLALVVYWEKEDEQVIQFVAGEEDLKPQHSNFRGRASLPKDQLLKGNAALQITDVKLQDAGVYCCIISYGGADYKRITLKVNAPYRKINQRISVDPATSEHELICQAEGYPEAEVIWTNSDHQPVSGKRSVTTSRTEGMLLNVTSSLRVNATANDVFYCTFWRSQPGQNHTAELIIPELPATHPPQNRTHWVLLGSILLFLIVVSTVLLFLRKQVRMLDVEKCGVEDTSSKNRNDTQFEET

Q: AlCl-NOTA-iPD-L1 (peptide) was tested. Which IC50 [1] did it give?
A: Its IC50 is 9.27 nM.

Q: Which IC50 [1] does the source give for WL12 (peptide) here?
A: The IC50 was 6.08 nM.

Q: With [18F]AlF-NOTA-iPD-L1 (peptide) as the substance, how does the tumor uptake at 1 h in mice with 4T1 tumors that received a blocking dose of cold iPD-L1 30 min before (% ID/g) [2] read?
A: Its tumor uptake at 1 h in mice with 4T1 tumors that received a blocking dose of cold iPD-L1 30 min before (% ID/g) is 1.81 % ID/g.

Q: And the tumor uptake in mice with induced PD-L1-positive 4T1 tumors, 1, 2 and 3 h after injection (% ID/g) [2]?
A: The tumor uptake in mice with induced PD-L1-positive 4T1 tumors, 1, 2 and 3 h after injection (% ID/g) was 6.54 % ID/g.
